This note sets out measurements from patent US20140234336A1.

Some results are limits rather than exact numbers.

Holding throughout (assay): cell-based or functional assay
For assay [1], the target named is HA of H2N2 influenza virus A/Ann Arbor/6/60, CA (influenza A virus H2N2 A/Ann Arbor/6/60, CA).
Assay [2] deals with HA of H1N1 influenza virus A/OH/07/2009 (influenza A virus H1N1 A/OH/07/2009).
Assay [3] concerns the target HA of H3N2 influenza virus A/Wisconsin/67/05 (influenza A virus H3N2 A/Wisconsin/67/05).
For assay [4], the target named is HA of H3N2 influenza virus A/Beijing/32/92-R-H3 (influenza A virus H3N2 A/Beijing/32/92-R-H3).
Assay [5] has as its target HA of H3N2 influenza virus A/Panama/2007/99 (influenza A virus H3N2 A/Panama/2007/99).
Assay [6] has as its target HA of H9N2 influenza virus A/Green-winged teal/209/TX/2009 (influenza A virus H9N2 A/Green-winged teal/209/TX/2009).
Assay [7] concerns the target HA of H3N2 influenza virus A/Beijing/353/89-X109 (influenza A virus H3N2 A/Beijing/353/89-X109).
In assay [8] the target is HA of H3N2 influenza virus A/Johannesburg/33/94 R-H3 (influenza A virus H3N2 A/Johannesburg/33/94 R-H3).
Assay [9] concerns the target HA of H3N2 influenza virus A/Sydney/5/97 (influenza A virus H3N2 A/Sydney/5/97).
In assay [10] the target is HA of H3N2 influenza virus A/Nanchang/933/95 (influenza A virus H3N2 A/Nanchang/933/95).
The target of assay [11] is HA of H3N2 influenza virus A/Brisbane/10/07 (influenza A virus H3N2 A/Brisbane/10/07).
The target of assay [12] is HA of H3N2 influenza virus A/Hong Kong/68 (influenza A virus H3N2 A/Hong Kong/68).

In the case of CT149 antibody, the MN titer is more than 20 µg/mL in assay [1]; 10 µg/mL in assay [2]; 0.078 µg/mL in [4]; 0.312 µg/mL in [5]; 0.156 µg/mL in assay [6]; 0.156 µg/mL in assay [7]. Besides, the MN titer in assay [8], in assay [9], in [10] and in assay [11] was 0.625 µg/mL each time. Moreover, the values for the MN assay: lowest antibody concentration at which no virus antigen was detected in [3], in [11] and in [12] were 1.25 µg/mL, 1.25 µg/mL and 2.5 µg/mL, respectively.
